This note sets out measurements from paper PMC8530329 (2021).

The koff is the first-order rate constant of dissociation. Low readings indicate slow dissociation, high ones fast dissociation. For orientation: Kd means the equilibrium constant for the complex coming apart. A higher Kd goes with a looser complex.

The target of experiment [1] is T1, SARS-CoV-2 RBD-Flag-His protein (SARS-CoV-2, UniProt P0DTC2 319-541). Nature of the experiment: BLI.
Experiment [2] has as its target T1, SARS-CoV-2 RBD-Flag-His protein. Nature of the experiment: BLI. This is another data set of the same source. On the technique in general: BLI is a label-free optical method that tracks binding on a fibre tip over time.

B1: RBD-chAb-45 (antibody, V domains shown)
VH: EVQLQQSGPELVKPGASVKISCKTSGYTFTEYTIYWVKQSLGKSLEWIGGNNPNNDDTTYKQFFKGKATLTVDKSSSTAYMELRSLTSEDSAVYYCARDGYPYYYALDFWGQGTSVTVSS
VL: DIVMTQSQKFMSTSVGDRVSVTCKSSQNVGTNVAWYQQKPGQSPKALIYSASYRYSGVPDHFTGSGSGTDFTLTISNVQSADLAEYFCQQYNNYPWTFGGGTKLEIK
Regarding B1, the koff in experiment [1] was 0.000282 s⁻¹. In experiment [2], this molecule came in with a Kd of 0.282 nM.
